Test results as given in publication PMC10716038, “Talin and kindlin use integrin tail allostery and direct binding to activate integrins” (Nature Structural & Molecular Biology, 2023).
Where “and” joins values, the source holds several entries; their conditions need not be identical. Identical values can stand only once. Like-named read-outs stand apart in the source and are kept apart here. No end group written: not given here.

T1: TLN1-F3–ΔKIND2 fusion protein
T1 chain: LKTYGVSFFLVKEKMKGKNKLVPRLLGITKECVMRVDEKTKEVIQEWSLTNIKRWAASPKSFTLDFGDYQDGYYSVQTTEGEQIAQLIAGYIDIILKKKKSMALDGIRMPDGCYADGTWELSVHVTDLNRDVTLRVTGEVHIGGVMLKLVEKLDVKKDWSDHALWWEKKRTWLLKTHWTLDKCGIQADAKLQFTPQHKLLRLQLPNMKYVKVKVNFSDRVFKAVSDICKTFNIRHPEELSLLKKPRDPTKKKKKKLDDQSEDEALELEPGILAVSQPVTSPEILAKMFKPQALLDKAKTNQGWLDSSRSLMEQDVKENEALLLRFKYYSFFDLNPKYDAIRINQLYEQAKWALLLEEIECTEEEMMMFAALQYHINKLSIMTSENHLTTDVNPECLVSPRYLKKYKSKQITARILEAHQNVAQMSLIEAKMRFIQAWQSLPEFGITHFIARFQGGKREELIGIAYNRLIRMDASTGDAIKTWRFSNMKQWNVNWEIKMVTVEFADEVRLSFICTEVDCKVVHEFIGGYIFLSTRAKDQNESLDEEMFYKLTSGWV

T2: α5-TM lacking the cytoplasmic domain (tailless α5-TM) in nanodiscs (UniProt P11688 993-1025, biotin (biotin-maleimide))
T2 chain: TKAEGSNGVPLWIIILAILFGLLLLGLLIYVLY

T3: β1 transmembrane and cytoplasmic tail polypeptide (β1-TM–CT) in nanodiscs (UniProt P05556 726-798, biotin (biotin-maleimide))
T3 chain: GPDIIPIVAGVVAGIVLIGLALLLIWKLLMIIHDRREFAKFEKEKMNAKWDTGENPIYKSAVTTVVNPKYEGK

T4: β3 transmembrane and cytoplasmic tail polypeptide (β3-TM–CT) in nanodiscs (UniProt O54890 715-787, biotin (biotin-maleimide))
T4 chain: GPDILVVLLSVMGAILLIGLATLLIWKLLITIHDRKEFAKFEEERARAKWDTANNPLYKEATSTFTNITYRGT

B1: kindlin-2 (KIND2) (natural protein)
chain: MALDGIRMPDGCYADGTWELSVHVTDLNRDVTLRVTGEVHIGGVMLKLVEKLDVKKDWSDHALWWEKKRTWLLKTHWTLDKCGIQADAKLQFTPQHKLLRLQLPNMKYVKVKVNFSDRVFKAVSDICKTFNIRHPEELSLLKKPRDPTKKKKKKLDDQSEDEALELEGPLIMPGSGSIYSSPGLYSKTMTPTYDAHDGSPLSPTSAWFGDSALSEGNPGILAVSQPVTSPEILAKMFKPQALLDKAKTNQGWLDSSRSLMEQDVKENEALLLRFKYYSFFDLNPKYDAIRINQLYEQAKWALLLEEIECTEEEMMMFAALQYHINKLSIMTSENHLNNSDKEVDEVDAALSDLEITLEGGKTSTILGDITSIPELADYIKVFKPKKLTLKGYKQYWCTFKDTSISCYKSREESSGTPAHQLNLRGCEVTPDVNISGQKFNIKLLIPVAEGMNEIWLRCDNEKQYAHWMAACRLASKGKTMADSSYNLEVQNILSFLKMQHLNPDPQLIPDQITTDVNPECLVSPRYLKKYKSKQITARILEAHQNVAQMSLIEAKMRFIQAWQSLPEFGITHFIARFQGGKREELIGIAYNRLIRMDASTGDAIKTWRFSNMKQWNVNWEIKMVTVEFADEVRLSFICTEVDCKVVHEFIGGYIFLSTRAKDQNESLDEEMFYKLTSGWV
B2: kindlin-2 (KIND2) (natural protein)
chain: B1 chain

Tests used:
[1] = biological target: ATTO 488-labelled β1–spacer–CT (UniProt P05556); experiment: MST; ATTO 488-labelled β-CT peptide (50–200 nM) held constant, one unlabelled protein titrated; 20 mM Tris pH 7.5, 200 mM NaCl, 1 mM TCEP, 0.05% Tween-20; apparent affinities (near-saturation only)
[2] = biological target: ATTO 488-labelled β1–spacer–CT (UniProt P05556); experiment: MST; as a7, with a second unlabelled protein present at near-saturating concentration (named in the quantity or in the printed words); apparent constants (Kd,app*)
[3] = biological target: ATTO 488-labeled β1–spacer–CT (UniProt P09055); experiment: MST; apparent; THD1 titrated to 488–β1-spacer-CT in the presence of 30-35 µM KIND2; MST buffer
[4] = biological target: ATTO 488-labeled β1–spacer–CT (UniProt P09055); experiment: MST; unlabelled protein titrated to 50-200 nM ATTO 488-labelled β-CT peptide, no third protein; 20 mM Tris pH 7.5, 200 mM NaCl, 1 mM TCEP, 0.05% Tween-20; Kd of individual titrations (in S0002 mean and sd, n = 2)
kindlin-2 (KIND2) = biological target: B2; experiment: MST
[5] = biological target: T1, TLN1-F3–ΔKIND2 fusion protein; experiment: MST
[6] = biological target: ATTO 488-labelled β1–spacer–CT (UniProt P05556); experiment: MST; ATTO 488-labelled β-CT peptide (50–200 nM) held constant, one unlabelled protein titrated; 20 mM Tris pH 7.5, 200 mM NaCl, 1 mM TCEP, 0.05% Tween-20; apparent affinities (near-saturation only); remark: listed apart in the source
[7] = biological target: ATTO 488-labeled β1–spacer–CT (UniProt P09055); experiment: MST; unlabelled protein titrated to 50-200 nM ATTO 488-labelled β-CT peptide, no third protein; 20 mM Tris pH 7.5, 200 mM NaCl, 1 mM TCEP, 0.05% Tween-20; Kd of individual titrations (in S0002 mean and sd, n = 2); remark: listed apart in the source
[8] = biological target: β1-TM–CT Y783A (THD1-binding impaired) in nanodiscs (UniProt P09055); experiment: flow cytometry-based reporter-displacement assay (FC-RDA) on beads; biotinylated TM–CT in 10% PIP3/90% DMPC nanodiscs on streptavidin beads; reporter 50 nM 647–KIND2, unlabelled competitor titrated; 20 mM Tris pH 7.5, 200 mM NaCl, room temperature; IC50 of individual experiments; charged lipids contribute to the binding
[9] = biological target: ATTO 488-labeled β1–spacer–CT (UniProt P09055); experiment: MST; apparent; KIND2-Y13A titrated to 488–β3-CT or KIND2 to 488–β1-spacer-CT in the presence of 300-400 µM THD1; MST buffer
[10] = biological target: T5, β1-TM–CT Y783A (THD1-binding impaired) in nanodiscs (UniProt P09055 726-798, Y783A, biotin (biotin-maleimide)); experiment: FACS; 10% PIP3 nanodiscs
[11] = biological target: T2, α5-TM lacking the cytoplasmic domain …; experiment: FACS; 10% PIP3 nanodiscs
[12] = biological target: T6, β1-TM–CT Y795A (KIND2-binding impaired) in nanodiscs (UniProt P09055 726-798, Y795A, biotin (biotin-maleimide)); experiment: FACS; 10% PIP3 nanodiscs
[13] = biological target: T3, β1 transmembrane and cytoplasmic tail …; experiment: FACS; 10% PIP3 nanodiscs
[14] = biological target: T5, β1-TM–CT Y783A (THD1-binding impaired) …; experiment: FACS; 10% PIP2 nanodiscs
[15] = biological target: T2, α5-TM lacking the cytoplasmic domain …; experiment: FACS; 10% PIP2 nanodiscs
[16] = biological target: T6, β1-TM–CT Y795A (KIND2-binding impaired) …; experiment: FACS; 10% PIP2 nanodiscs
[17] = biological target: T3, β1 transmembrane and cytoplasmic tail …; experiment: FACS; 10% PIP2 nanodiscs
[18] = biological target: T4, β3 transmembrane and cytoplasmic tail …; experiment: FACS; 10% PIP2 nanodiscs

What does the source list for “talin-1 head domain (THD1) (from UniProt P26039 1-405) (domain or fragment)”?
Kd [1]: 181 µM; apparent Kd (Kd,app*) in the presence of KIND2 [2]: 279 µM; Kd [3]: 254 µM and 320 µM and 262 µM; Kd [4]: 178 µM and 171 µM and 193 µM

For {ATTO 488}-KLLMIIHDRREFAKFEKEKMNAKWDTGENPIAKSAVTTVVNPKYEGK [ATTO 488-labelled β1-CT^Y783A], which Kd (kindlin-2 (KIND2)) is on record?
The Kd was 4.9 µM.

And the Kd [5]?
The Kd was 4.3 µM.

Which results are given for B1?
Kd [6]: 5 µM; apparent Kd (Kd,app*) in the presence of THD1 [2]: 6 µM; Kd [7]: 5.47 µM and 5.42 µM and 5.12 µM; IC50 [8]: 0.297 µM and 0.278 µM and 0.387 µM; Kd [9]: 6.09 µM and 3.02 µM and 8.05 µM

What does the source list for B2?
IC50 [10]: 0.255 µM; IC50 [11]: 0.471 µM; IC50 [12]: 0.162 µM; IC50 [13]: 0.102 µM; IC50 [14]: 0.117 µM; IC50 [15]: 0.444 µM; IC50 [16]: 0.37 µM; IC50 [17]: 0.12 µM; IC50 [18]: 0.095 µM
